Assay results as given in US20250326840A1 (QURE BIOTECHNOLOGY SHANGHAI, published 2025).

T1: SIRPα V5 fusion Fc (mouse IgG2a) (human, limits assumed)
T1 chain: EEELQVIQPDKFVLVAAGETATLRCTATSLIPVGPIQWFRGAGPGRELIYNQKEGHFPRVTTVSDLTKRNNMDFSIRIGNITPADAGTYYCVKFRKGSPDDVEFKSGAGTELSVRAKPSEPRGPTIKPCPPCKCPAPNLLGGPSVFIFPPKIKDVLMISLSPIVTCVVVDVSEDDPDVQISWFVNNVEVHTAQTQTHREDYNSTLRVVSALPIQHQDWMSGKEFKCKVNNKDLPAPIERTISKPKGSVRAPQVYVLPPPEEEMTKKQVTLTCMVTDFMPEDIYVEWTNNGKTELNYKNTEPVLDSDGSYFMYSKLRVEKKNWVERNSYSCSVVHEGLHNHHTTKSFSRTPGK

T2: QP093 (human SIRPα V1 ECD(E31-R370)-mFC(IgG2a)) (human)
T2 construct: also called Human SIRPα V1 recombinant protein (QP093)
T2 chain: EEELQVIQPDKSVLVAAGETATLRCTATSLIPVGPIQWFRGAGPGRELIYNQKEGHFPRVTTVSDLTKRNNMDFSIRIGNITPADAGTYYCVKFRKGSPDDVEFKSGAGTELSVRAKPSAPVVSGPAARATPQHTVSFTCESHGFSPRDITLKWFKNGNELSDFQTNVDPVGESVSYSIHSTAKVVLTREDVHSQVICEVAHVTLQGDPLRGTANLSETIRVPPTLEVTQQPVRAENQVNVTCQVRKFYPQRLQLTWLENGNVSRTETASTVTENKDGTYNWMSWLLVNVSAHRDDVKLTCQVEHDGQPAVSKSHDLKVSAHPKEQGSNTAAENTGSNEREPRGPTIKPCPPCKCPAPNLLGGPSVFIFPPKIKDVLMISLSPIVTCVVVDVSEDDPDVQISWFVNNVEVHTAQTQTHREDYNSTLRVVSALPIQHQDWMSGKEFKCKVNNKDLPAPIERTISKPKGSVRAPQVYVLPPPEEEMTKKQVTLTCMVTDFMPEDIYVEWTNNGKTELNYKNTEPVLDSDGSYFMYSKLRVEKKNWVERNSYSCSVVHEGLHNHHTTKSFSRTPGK


Columns and labels:
[1] = target: SIRPα V3 fusion Fc (mouse IgG2a) (human); assay: ELISA, SIRPα V3-mouse IgG2a Fc coated, anti-hFab detection; unit from the x axis Log(Conc.(nM))
[2] = target: SIRPα V8 fusion Fc (mouse IgG2a) (human); assay: ELISA, SIRPα V8-mouse IgG2a Fc coated, anti-hFab detection; unit from the x axis Log(Conc.(nM))
[3] = target: SIRPα V7 fusion Fc (mouse IgG2a) (human); assay: ELISA, SIRPα V7-mouse IgG2a Fc coated, anti-hFab detection; unit from the x axis Log(Conc.(nM))
[4] = target: SIRPα V10 fusion Fc (mouse IgG2a) (human); assay: ELISA, SIRPα V10-mouse IgG2a Fc coated, anti-hFab detection; unit from the x axis Log(Conc.(nM))
[5] = target: SIRPα V2 fusion Fc (mouse IgG2a) (human); assay: ELISA, SIRPα V2-mouse IgG2a Fc coated, anti-hFab detection; unit from the x axis Log(Conc.(nM))
QP002 = target: T3, QP002 (biotinylated in the blocking assays, sites not given); assay: blocking ELISA: QP001.2 (CD47) coated, biotin-QP002 (SIRPα-FC) mixed with the antibody, HRP-streptavidin; blocked ligand: CD47; unit from the x axis Log[Conc.(ug/ml)]
T3 construct: also called SIRPα-FC; Biotin-QP002

QP096 (human SIRPα V2 …) [6] = target: T4, QP096 (human SIRPα V2 ECD(E31-R370)-flag-his) (human); assay: binding ELISA, antigen coated
T4 construct: the construct carries flag and his tags; also called SIRPαV2-Flag-his; Human SIRPα V2 (QP096)
T4 sequence (chain, as listed by the source limits assumed): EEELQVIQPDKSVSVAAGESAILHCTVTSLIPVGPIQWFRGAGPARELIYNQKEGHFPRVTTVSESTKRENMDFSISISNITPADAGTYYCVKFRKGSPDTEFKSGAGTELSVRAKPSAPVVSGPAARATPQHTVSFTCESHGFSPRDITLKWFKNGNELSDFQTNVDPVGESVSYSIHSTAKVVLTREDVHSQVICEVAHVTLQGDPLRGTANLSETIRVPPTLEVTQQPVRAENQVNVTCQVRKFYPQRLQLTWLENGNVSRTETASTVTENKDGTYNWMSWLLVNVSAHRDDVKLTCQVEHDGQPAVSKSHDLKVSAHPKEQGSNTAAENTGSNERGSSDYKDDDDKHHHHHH

QP094 (human SIRPα V1 …) [7] = target: T5, QP094 (human SIRPα V1 ECD(E31-R370)-flag-his) (human, UniProt P78324 31-370); assay: binding ELISA, antigen coated
T5 construct: the construct carries flag and his tags; also called SIRPαV1-flag-his; SIRPαV1-his (QP094)

QP096 (human SIRPα V2 …) [8] = target: T4, QP096 (human SIRPα V2 …); assay: SPR, Biacore
QP094 (human SIRPα V1 …) [9] = target: T5, QP094 (human SIRPα V1 …); assay: SPR, Biacore
[10] = target: T1, SIRPα V5 fusion Fc (mouse IgG2a); assay: ELISA, SIRPα V5-mouse IgG2a Fc coated, anti-hFab detection; unit from the x axis Log(Conc.(nM))
[11] = target: T6, QP537 (SIRPαV8-mFC(mIgG2a)) (human); assay: ELISA, human SIRPα V8 recombinant protein (QP537) coated, HRP anti-human Fc detection
T6 construct: also called human SIRPα V8 recombinant protein (QP537)

QP095 (human SIRPα V2 …) = target: T7, QP095 (human SIRPα V2 ECD(E31-R370)-mFC(IgG2a)) (human); assay: ELISA, QP095 (SIRPα V2) coated, anti-hFab detection; unit from the x axis Log(Conc.(nM))
T7 construct: also called human SIRPα V2 recombinant protein (QP095)

QP093 (human SIRPα V1 …) = target: T2, QP093 (human SIRPα V1 …); assay: ELISA, QP093 (SIRPα V1) coated, anti-hFab detection; unit from the x axis Log(Conc.(nM))
QP003 (PDL1-his) [12] = assay: ELISA, QP003 (PDL1-his) captured on coated anti-his, anti-hFc detection; unit from the x axis; the curve is flat at the baseline, the fit is marked ambiguous (~)
Chain of QP003 (PDL1-his) (chain, as listed by the source limits assumed): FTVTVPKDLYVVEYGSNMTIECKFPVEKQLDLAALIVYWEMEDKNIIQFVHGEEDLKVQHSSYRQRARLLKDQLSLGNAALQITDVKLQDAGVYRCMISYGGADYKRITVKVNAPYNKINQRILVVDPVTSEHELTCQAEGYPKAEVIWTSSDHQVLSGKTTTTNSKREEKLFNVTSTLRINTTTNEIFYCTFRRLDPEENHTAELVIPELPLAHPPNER

QP003 (PDL1-his) [13] = assay: ELISA, QP003 (PDL1-his) captured on coated anti-his, anti-hFc detection; unit from the x axis; no rising curve is seen for it, the fit is marked ambiguous (~)
[14] = target: SIRPα V3 fusion Fc (mouse IgG2a) (human); assay: ELISA, SIRPα V3-mouse IgG2a Fc coated, anti-hFab detection; unit from the x axis; the curve is flat at the baseline, the fit is marked ambiguous (~)

Binder	EC50 [1] [pM]	EC50 [2] [pM]	EC50 [3] [pM]	EC50 [4] [pM]	EC50 [5] [pM]	IC50 (QP002) [ng/mL]	EC50 (QP096 (human SIRPα V2 …) [6]) [ng/mL]	EC50 (QP094 (human SIRPα V1 …) [7]) [ng/mL]	Kd (QP096 (human SIRPα V2 …) [8]) [pM]	Kd (QP094 (human SIRPα V1 …) [9]) [pM]	EC50 [10] [pM]	EC50 [11] [pM]	EC50 (QP095 (human SIRPα V2 …)) [pM]	EC50 (QP093 (human SIRPα V1 …)) [pM]	EC50 (QP003 (PDL1-his) [12]) [pM]	EC50 (QP003 (PDL1-his) [13]) [pM]	EC50 [14] [pM]
QP256279 (antibody, human IgG4, V domains shown, Human IgG4 heavy constant region and kappa CL) VH: QVQLVQSGAEVKKPGASVKVSCKASGYTFTNYWINWVRQAPGQGLEWIAMIDPSDSETHYNQIFKDRATLTTDTSTSTAYMELRSLRSDDTAVYYCAMDYGSLYAMDYWGRGTLVTVSS VL: DIVLTQSPDSLAVSLGERATINCRASQSVRSSGYNWIFWYQQKPGQPPKLLIYLASNRDSGVPDRFSGSGSGTDFTLTISSLQAEDVAVYYCQHSRELPTFGQGTKLEIK	63.5	85.1	70.7	68.2	68.2	12.9	0.624	0.651	44.6	35.4	69.1						
QP37503751 (1H9 analog) (antibody, human IgG1, kappa, N297A, V domains shown, also called hz1H9 hIgG1(N297A)) VH: QVQLVQSGAEVKKPGASVKVSCKASGYTFTSYWITWVKQAPGQGLEWIGDIYPGSGSTNHIEKFKSKATLTVDTSISTAYMELSRLRSDDTAVYYCATGYGSSYGYFDYWGQGTLVTVSS VL: DIQMTQSPSSLSASVGDRVTITCRASENIYSYLAWYQQKPGKAPKLLIYTAKTLAEGVPSRFSGSGSGTDFTLTISSLQPEDFATYYCQHQYGPPFTFGQGTKLEIKR												908					
QP32700279 (antibody, human IgG1, kappa, L234A L235A, V domains shown, also called SIRPα monoclonal antibody CHO71) VH: QVQLVQSGAEVKKPGASVKVSCKASGYTFTNYWINWVRQAPGQGLEWIAMIDPSDSETHYNQIFKDRATLTTDTSTSTAYMELRSLRSDDTAVYYCAMDYGSLYAMDYWGRGTLVTVSS VL: DIVLTQSPDSLAVSLGERATINCRASQSVRSSGYNWIFWYQQKPGQPPKLLIYLASNRDSGVPDRFSGSGSGTDFTLTISSLQAEDVAVYYCQHSRELPTFGQGTKLEIKR												341	160	142	~0.628		
QP026249 (KWAR23 analog) (antibody, human IgG4 S228P, kappa, also called KAWA23 analog; control antibody KWAR23 (QP026249), human IgG4) heavy: not shown light: QIVLTQSPAIMSASPGEKVTLTCSASSSVSSSYLYWYQQKPGSSPKLWIYSTSNLASGVPARFSGSGSGTSYSLTISSMEAEDAASYFCHQWSSYPRTFGAGTKLELKRTVAAPSVFIFPPSDEQLKSGTASVVCLLNNFYPREAKVQWKVDNALQSGNSQESVTEQDSKDSTYSLSSTLTLSKADYEKHKVYACEVTHQGLSSPVTKSFNRGEC	134	180	147	137	137	45.4	3.31	5.29	13600	3430	144	689	249	237		~0.685	
QP250251 (18D5 analog) (antibody, human IgG4 S228P, kappa, V domains shown, also called SIRPα antibody 18D5 from OSE) VH: QVQLQQPGAELVRPGSSVKLSCKASGYTFTSYWVHWVKQRPIQGLEWIGNIDPSDSDTHYNQKFKDKASLTVDKSSSTAYMQLSSLTFEDSAVYYCVRGGTGTMAWFAYWGQGTLVTVSA VL: DVVMTQTPLSLPVSLGDQASISCRSSQSLVHSYGNTYLYWYLQKPGQSPKLLIYRVSNRFSGVPDRFSGSGSGTDFTLKISRVEAEDLGVYFCFQGTHVPYTFGSGTKLEIKR											130						~58700
